The values that follow come from FireProtDB (doi:10.1002/cbic.201402128).

For orientation: Tm means the temperature at the midpoint of the melting transition.

Sequences and labels used below:
B1: Haloalkane dehalogenase, D4Z2G1 (parent)
chain: MSLGAKPFGEKKFIEIKGRRMAYIDEGTGDPILFQHGNPTSSYLWRNIMPHCAGLGRLIACDLIGMGDSDKLDPSGPERYAYAEHRDYLDALWEALDLGDRVVLVVHDWGSALGFDWARRHRERVQGIAYMEAIAMPIEWADFPEQDRDLFQAFRSQAGEELVLQDNVFVEQVLPGLILRPLSEAEMAAYREPFLAAGEARRPTLSWPRQIPIAGTPADVVAIARDYAGWLSESPIPKLFINAEPGALTTGRMRDFCRTWPNQTEITVAGAHFIQEDSPDEIGAAIAAFVRRLRPA

The variants in the data set derive from B1. Conditions: Sphingobium indicum (strain DSM 16413 / CCM 7287 / MTCC 6362 / UT26 / NBRC 101211 / UT26S); pH 7.5; Thermal; fluorescence; Na-Hepes 50 mM; reversible: no; structure 1MJ5; whole UniProt chain shown.

Regarding MSLGAKPFGEKKFIEIKGRRMAYIDEGTGAPILFQHGNPTSSYLWRNIMPHCAGLGRLIACDLIGMGDSDKLDPSGPERYAYAEHRDYLDALWEALDLGDRVVLVVHDWGSALGFDWARRHRERVQGIAYMEAIAMPIEWADFPEQDRDLFQAFRSQAGEELVLQDNVFVEQVLPGLILRPLSEAEMAAYREPFLAAGEARRPTLSWPRQIPIAGTPADVVAIARDYAGWLSESPIPKLFINAEPGALTTGRMRDFCRTWPNQTEITVAGAHFIQEDSPDEIGAAIAAFVRRLRPA [D30A], the Tm came to 51 °C and the “change of melting temperature, mutant - wild type (higher = more stable)” value (from here on “change of melting temperature, mutant”) came out at 0 °C.
MSLGAKPFGEKKFIEIKGRRMAYIDEGTGVPILFQHGNPTSSYLWRNIMPHCAGLGRLIACDLIGMGDSDKLDPSGPERYAYAEHRDYLDALWEALDLGDRVVLVVHDWGSALGFDWARRHRERVQGIAYMEAIAMPIEWADFPEQDRDLFQAFRSQAGEELVLQDNVFVEQVLPGLILRPLSEAEMAAYREPFLAAGEARRPTLSWPRQIPIAGTPADVVAIARDYAGWLSESPIPKLFINAEPGALTTGRMRDFCRTWPNQTEITVAGAHFIQEDSPDEIGAAIAAFVRRLRPA [D30V]: the melting temperature (Tm) was 49 °C and the “change of melting temperature, mutant” value was -2 °C.
In the same order, the values of MSLGAKPFGEKKFIEIKGRRMAYIDEGTGHPILFQHGNPTSSYLWRNIMPHCAGLGRLIACDLIGMGDSDKLDPSGPERYAYAEHRDYLDALWEALDLGDRVVLVVHDWGSALGFDWARRHRERVQGIAYMEAIAMPIEWADFPEQDRDLFQAFRSQAGEELVLQDNVFVEQVLPGLILRPLSEAEMAAYREPFLAAGEARRPTLSWPRQIPIAGTPADVVAIARDYAGWLSESPIPKLFINAEPGALTTGRMRDFCRTWPNQTEITVAGAHFIQEDSPDEIGAAIAAFVRRLRPA [D30H] are 51 °C and 0 °C.
On to MSSGAKPFGEKKFIEIKGRRMAYIDEGTGDPILFQHGNPTSSYLWRNIMPHCAGLGRLIACDLIGMGDSDKLDPSGPERYAYAEHRDYLDALWEALDLGDRVVLVVHDWGSALGFDWARRHRERVQGIAYMEAIAMPIEWADFPEQDRDLFQAFRSQAGEELVLQDNVFVEQVLPGLILRPLSEAEMAAYREPFLAAGEARRPTLSWPRQIPIAGTPADVVAIARDYAGWLSESPIPKLFINAEPGALTTGRMRDFCRTWPNQTEITVAGAHFIQEDSPDEIGAAIAAFVRRLRPA [L3S], for which the Tm is 50.5 °C and the “change of melting temperature, mutant” value was -0.5 °C.
For the variant MSLGAKPFGEKKFIEIKGRLMAYIDEGTGDPILFQHGNPTSSYLWRNIMPHCAGLGRLIACDLIGMGDSDKLDPSGPERYAYAEHRDYLDALWEALDLGDRVVLVVHDWGSALGFDWARRHRERVQGIAYMEAIAMPIEWADFPEQDRDLFQAFRSQAGEELVLQDNVFVEQVLPGLILRPLSEAEMAAYREPFLAAGEARRPTLSWPRQIPIAGTPADVVAIARDYAGWLSESPIPKLFINAEPGALTTGRMRDFCRTWPNQTEITVAGAHFIQEDSPDEIGAAIAAFVRRLRPA [R20L], the midpoint of thermal melting (Tm) was 50 °C and the “change of melting temperature, mutant” value was -1 °C.
MSLGAEPFGEKKFIEIKGRRMAYIDEGTGDPILFQHGNPTSSYLWRNIMPHCAGLGRLIACDLIGMGDSDKLDPSGPERYAYAEHRDYLDALWEALDLGDRVVLVVHDWGSALGFDWARRHRERVQGIAYMEAIAMPIEWADFPEQDRDLFQAFRSQAGEELVLQDNVFVEQVLPGLILRPLSEAEMAAYREPFLAAGEARRPTLSWPRQIPIAGTPADVVAIARDYAGWLSESPIPKLFINAEPGALTTGRMRDFCRTWPNQTEITVAGAHFIQEDSPDEIGAAIAAFVRRLRPA [K6E]: the Tm was found to be 51 °C and the “change of melting temperature, mutant” value came out at 0 °C.
Take MSLGAKPFGEKKFIEIKGRRMAYIDEGTGDPILFVHGNPTSSYLWRNIMPHCAGLGRLIACDLIGMGDSDKLDPSGPERYAYAEHRDYLDALWEALDLGDRVVLVVHDWGSALGFDWARRHRERVQGIAYMEAIAMPIEWADFPEQDRDLFQAFRSQAGEELVLQDNVFVEQVLPGLILRPLSEAEMAAYREPFLAAGEARRPTLSWPRQIPIAGTPADVVAIARDYAGWLSESPIPKLFINAEPGALTTGRMRDFCRTWPNQTEITVAGAHFIQEDSPDEIGAAIAAFVRRLRPA [Q35V]: the Tm came out at 48.5 °C and the “change of melting temperature, mutant” value was -2.5 °C.
For MSLGAKPFGEKKFIEIKGRRMAYIDEGTGDPILFLHGNPTSSYLWRNIMPHCAGLGRLIACDLIGMGDSDKLDPSGPERYAYAEHRDYLDALWEALDLGDRVVLVVHDWGSALGFDWARRHRERVQGIAYMEAIAMPIEWADFPEQDRDLFQAFRSQAGEELVLQDNVFVEQVLPGLILRPLSEAEMAAYREPFLAAGEARRPTLSWPRQIPIAGTPADVVAIARDYAGWLSESPIPKLFINAEPGALTTGRMRDFCRTWPNQTEITVAGAHFIQEDSPDEIGAAIAAFVRRLRPA [Q35L], the melting temperature (Tm) is 48.5 °C and the “change of melting temperature, mutant” value was -2.5 °C.
In the same order, the values of MSLGAKPFGEKKFIEIKGRRMAYIDEGTGDPILFIHGNPTSSYLWRNIMPHCAGLGRLIACDLIGMGDSDKLDPSGPERYAYAEHRDYLDALWEALDLGDRVVLVVHDWGSALGFDWARRHRERVQGIAYMEAIAMPIEWADFPEQDRDLFQAFRSQAGEELVLQDNVFVEQVLPGLILRPLSEAEMAAYREPFLAAGEARRPTLSWPRQIPIAGTPADVVAIARDYAGWLSESPIPKLFINAEPGALTTGRMRDFCRTWPNQTEITVAGAHFIQEDSPDEIGAAIAAFVRRLRPA [Q35I] are 50.5 °C and -0.5 °C.
On to MCLGAKPFGEKKFIEIKGRRMAYIDEGTGDPILFQHGNPTSSYLWRCIMPHCAGLGRLIACDLIGMGDSDKLDPSGPERYAYAEHRDYLDALWEALDLGDRVVLVVHDWGSALGFDWARRHRERVQGIAYMEAIAMPIEWADFPEQDRDLFQAFRSQAGEELVLQDNVFVEQVLPGLILRPLSEAEMAAYREPFLAAGEARRPTLSWPRQIPIAGTPADVVAIARDYAGWLSESPIPKLFINAEPGALTTGRMRDFCRTWPNQTEITVAGAHFIQEDSPDEIGAAIAAFVRRLRPA [S2C N47C], for which the Tm was found to be 48 °C and the “change of melting temperature, mutant” value was -3 °C.
